Measurements taken from patent US10287317B2, “Proprotein convertase subtilisin kexin type 9 (PCSK9) allosteric binding ligands to modulate serum low density lipoprotein (LDL) levels” (SRX Cardio, LLC, priority 2013, dated 2019).
*1 amine or outer side, *2 acyl side, *3 side chain or, on linkers, in order; H or OH if unused. Where no end group is shown, it is not given here. [ ]: non-standard residue; d: D form. Asp(NHCH2Ph) = Asp side-chain benzylamide, O=C(C[C@H](N[*:1])C(=O)[*:2])NCc1ccccc1; Cys(CH2-Ph) = S-benzyl-Cys, O=C([C@H](CSCc1ccccc1)N[*:1])[*:2]; Bip = N[C@@H](Cc1ccc(-c2ccccc2)cc1)C(=O)O; hCha = N[C@@H](CCC1CCCCC1)C(=O)O; pS = N[C@@H](COP(=O)(O)O)C(=O)O; Cit = NC(=O)NCCC[C@H](N)C(=O)O

B1: SRX310: Val-Tyr-Val-Cit-Phe-Trp-NH2 (peptide)
peptide: VYV[Cit]FW-NH2
modifications: N-terminus assumed
SMILES: CC(C)[C@H](N)C(=O)N[C@@H](Cc1ccc(O)cc1)C(=O)N[C@H](C(=O)N[C@@H](CCCNC(N)=O)C(=O)N[C@@H](Cc1ccccc1)C(=O)N[C@@H](Cc1c[nH]c2ccccc12)C(N)=O)C(C)C

Biological target: PCSK9-WT protein (human proprotein convertase subtilisin/kexin type 9) (human, UniProt Q8NBP7 31-692, limits assumed)
Experiment: cell-based or functional assay

PCSK9-WT protein (human proprotein convertase subtilisin/kexin type 9), sequence (Q8NBP7 31-692 limits assumed): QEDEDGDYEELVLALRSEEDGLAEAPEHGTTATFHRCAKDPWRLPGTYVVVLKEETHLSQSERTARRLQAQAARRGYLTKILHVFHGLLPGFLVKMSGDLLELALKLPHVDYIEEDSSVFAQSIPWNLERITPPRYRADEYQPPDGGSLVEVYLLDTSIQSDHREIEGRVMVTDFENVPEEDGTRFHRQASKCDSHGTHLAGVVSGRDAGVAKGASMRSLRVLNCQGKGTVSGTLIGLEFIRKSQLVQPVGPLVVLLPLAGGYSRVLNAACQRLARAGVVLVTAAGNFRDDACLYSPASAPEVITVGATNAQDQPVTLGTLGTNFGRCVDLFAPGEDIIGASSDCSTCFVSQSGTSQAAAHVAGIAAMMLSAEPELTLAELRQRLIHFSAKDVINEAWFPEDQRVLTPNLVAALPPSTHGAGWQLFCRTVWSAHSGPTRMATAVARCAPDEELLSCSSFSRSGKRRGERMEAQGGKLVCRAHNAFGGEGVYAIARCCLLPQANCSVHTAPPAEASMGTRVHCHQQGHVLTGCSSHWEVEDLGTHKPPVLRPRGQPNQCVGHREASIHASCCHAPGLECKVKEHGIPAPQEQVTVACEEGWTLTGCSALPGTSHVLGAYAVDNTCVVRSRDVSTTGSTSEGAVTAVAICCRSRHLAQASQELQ

Row | Binder | cell surface LDLR levels, FACS in HuH7 cells, 10 nM recombinant PCSK9 | Cell Activity of Exemplified Peptides (FACS of cell surface LDLR, HuH7/shPCSK9 cells)
1 | VYVRF-{NH(cyclopentyl)} [SRX321: Val-Tyr-Val-Arg-Phe-NH(cyclopentyl)] | > 60 % reversal | –
2 | Ac-Trp-Ala-[pS] [SRX69: Ac-Trp-Ala-Ser(p)] | – | > 30 % inhibition below control at 100 uM
3 | Ac-Tyr-Trp-Gly [SRX72: Ac-Tyr-Trp-Gly] | – | > 30 % inhibition below control at 100 uM
4 | B1 | 60 % reversal | –
5 | [Bip]-Ala-[pS]-morpholine [SRX73: Phe(4-Ph)-Ala-Ser(p)-morpholine] | – | > 30 % inhibition below control at 100 uM
6 | TL[Cys(CH2-Ph)]TWSS[pS] [SRX60: Thr-Leu-Cys(CH2-Ph)-Thr-Trp-Ser-Ser-Ser(p)] | – | > 30 % inhibition above control at 100 uM
7 | LDLFFS [SRX66: Leu-Asp-Leu-Phe-Phe-Ser] | – | > 30 % inhibition above control at 100 uM
8 | TL[Asp(NHCH2Ph)]TWSS[pS] [SRX61: Thr-Leu-Asp(NHCH2Ph)-Thr-Trp-Ser-Ser-Ser(p)] | – | > 30 % inhibition above control at 100 uM
9 | VYV[Cit]FW-NHEt [SRX314: Val-Tyr-Val-Cit-Phe-Trp-NHEt] | > 60 % reversal | –
10 | TL[hCha]TWSS[pS] [SRX62: Thr-Leu-Gly(CH2CH2cyclohexyl)-Thr-Trp-Ser-Ser-Ser(p)] | – | > 30 % inhibition above control at 100 uM
